Residue numbers refer to the chain shown, from its start. One block for each molecule: values may come before it.
Columns and labels:
[1] = tested on: VEGFR2; assay: Real-time quantitative RT-PCR of VEGFR2 expression in HUVECs; assay type: cell-based, human; settings: 2-D culture of HUVECs (36 hr)
Method: RNA extraction and Real-time quantitative RT-PCR. Extraction of total RNA from HUVECs in 2-D culture was done using RNeasy® Mini Kit (Qiagen) as per instructions of the manufacturer. To extract total RNA from HUVECs growing in fibrin gels, fibrin gels were treated with 10× trypsin-EDTA (Gibco) for 5 min to remove the top layer fibroblasts, followed by neutralization with 10% FBS in PBS. The gel clots were then removed from tissue culture wells and subjected to centrifugation (10K for 5 min) in microtubes to remove excessive fluid. The resulting gel “pellets” were lysed with lysis buffer (RNeasy® Mini Kit), and further processed as with HUVECs in 2-D culture. The quality of RNA was assessed using RNA 6000 Nano Chips and the Agilent 2100 Bioanalyzer (Agilent Technologies). Real-time quantitative RT-PCR reactions were done in triplicate using 7500 Real Time PCR System (Applied Biosystems). Human GAPDH was used as reference gene for normalization. The expression levels are expressed as the mean (±SEM) fold mRNA changes relative to control from 3 separate determinations. The forward and reverse primer and probe sequences for VEGFR2, TGFβ2 and GAPDH were as follows.
Therefore, while VEGF can act upstream of DLL4/Notch pathway, DLL4/Notch is capable of fine-tuning the response through negatively regulating VEGFR2 expression.

[2] = tested on: HUVEC; assay: HUVEC proliferation on Notch activation by immobilized DLL4; assay type: cell-based, human; settings: Notch activation by immobilized DLL4 protein
[3] = target: T1, human Delta4 (ECD5.5) (Homo sapiens, UniProt Q9NR61); assay: Surface plasmon resonance (BIAcore-3000) binding affinity and kinetics; settings: human DLL4-His injected over coupled antibody, 25° C.
T1 construct: DLL4-His (C-terminal His-tagged human DLL4, amino acid 1-404); His (C)
Method: (§1) To determine the binding affinity of the anti-DLL4 Mabs, surface plasmon resonance (SRP) measurement with a BIAcore™-3000 was used (BIAcore, Inc., Piscataway, N.J.). Briefly, carboxymethylated dextran biosensor chips (CM5, BIAcore Inc.) were activated with N-ethyl-N′-(3-dimethylaminopropyl)-carbodiimide hydrochloride (EDC) and N-hydroxysuccinimide (NHS) according to the supplier's instructions. Anti-DLL4 antibody was diluted with 10 mM sodium acetate, pH 4.8, into 5 μg/ml before injection at a flow rate of 5 μl/minute to achieve approximately 500 response units (RU) of coupled antibody. Next, IM ethanolamine was injected to block unreacted groups. For kinetics measurements, two-fold serial dilutions of either human or murine DLL4-His molecules (0.7 nM to 500 nM) were injected in PBS with 0.05% Tween™ 20 at 25° C. at a flow rate of 25 μl/min. Association rates (kon) and dissociation rates (koff) were calculated using a simple one-to-one Langmuir binding model (BIAcore Evaluation Software version 3.2). The equilibrium dissociation constant (Kd) was calculated as the ratio koff/kon.

[4] = target: T2, murine Delta4 (ECD5.5) (Mus musculus, UniProt Q9JI71); assay: as above; settings: murine DLL4-His injected over coupled antibody, 25° C.
T2 construct: murine Delta4 (ECD5.5); His
Method: as §1

T2 sequence (Q9JI71 27-405 limits assumed): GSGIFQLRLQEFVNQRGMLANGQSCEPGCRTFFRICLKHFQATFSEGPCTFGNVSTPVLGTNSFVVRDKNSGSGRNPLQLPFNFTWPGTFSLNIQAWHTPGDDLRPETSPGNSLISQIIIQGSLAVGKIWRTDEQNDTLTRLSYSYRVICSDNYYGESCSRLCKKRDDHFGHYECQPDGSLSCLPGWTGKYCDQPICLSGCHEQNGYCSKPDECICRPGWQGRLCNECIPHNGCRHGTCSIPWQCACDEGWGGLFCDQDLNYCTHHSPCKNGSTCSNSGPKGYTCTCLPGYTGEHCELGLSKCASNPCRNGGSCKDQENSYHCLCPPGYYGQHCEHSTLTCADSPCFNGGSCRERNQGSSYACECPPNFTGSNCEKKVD

B1: immobilized DLL4: immobilized C-terminal His-tagged human DLL4 (amino acids 1-404) used to activate Notch in HUVECs (protein)
chain: GSGVFQLQLQEFINERGVLASGRPCEPGCRTFFRVCLKHFQAVVSPGPCTFGTVSTPVLGTNSFAVRDDSSGGGRNPLQLPFNFTWPGTFSLIIEAWHAPGDDLRPEALPPDALISKIAIQGSLAVGQNWLLDEQTSTLTRLRYSYRVICSDNYYGDNCSRLCKKRNDHFGHYVCQPDGNLSCLPGWTGEYCQQPICLSGCHEQNGYCSKPAECLCRPGWQGRLCNECIPHNGCRHGTCSTPWQCTCDEGWGGLFCDQDLNYCTHHSPCKNGATCSNSGQRSYTCTCRPGYTGVDCELELSECDSNPCRNGGSCKDQEDGYHCLCPPGYYGLHCEHSTLSCADSPCFNGGSCRERNQGANYACECPPNFTGSNCEKKVD
modifications: left off: small tags and cut ends
- VEGFR2 expression on Notch activation [1]: suppressed the expression of VEGFR2
- HUVEC proliferation / growth [2]: significant growth inhibition

- koff/10^−4 [3]: 0.66 10^−4
- kon/10^5 [3]: 1.8 10^5
- koff10^−4 [4]: 0.73 10^−4
- kon/10^5 [4]: 3.3 10^5
B2: YW26.14: affinity matured anti-DLL4 antibody; HVR-H1/H2/H3 SEQ ID NO:2, 3, 9; HVR-L1/L2/L3 SEQ ID NO:10, 11, 14 (antibody, V domains shown)
VH: EVQLVESGGGLVQPGGSLRLSCAASGFSFRDNWISWVRQAPGKGLEWVGVINPNSGSTDYADSVKGRFTISADTSKNTAYLQMNSLRAEDTAVYYCARDNFGGYFDYWGQGTLVTVSS
VL: DIQMTQSPSSLSASVGDRVTITCRASQDVSTAVAWYQQKPGKAPKLLIYSASFLYSGVPSRFSGSGSGTDFTLTISSLQPEDFATYYCQQSVNGPATFGQGTKVEIK

- koff/10^−4 [3]: 0.67 10^−4
- kon/10^5 [3]: 1.9 10^5
- koff10^−4 [4]: 0.65 10^−4
- kon/10^5 [4]: 3.6 10^5
B3: YW26.34: affinity matured anti-DLL4 antibody; HVR-H1/H2/H3 SEQ ID NO:1, 6, 9; HVR-L1/L2/L3 SEQ ID NO:10, 11, 16 (antibody, V domains shown)
VH: B2 VH with S28T, R30T, V50L, N54T, D59I
VL: B2 VL with V92Y, N93T, A96S

— US7803377B2, “Anti-DLL4 antibodies and methods using same” (Genentech, Inc., priority 2006, dated 2010)
